Results as given in paper PMC2132652 (The Journal of Cell Biology, 1997).

Biological target: the molecule itself
Assay: cross-linking

B1: furin-HA (mouse furin tagged with the HA epitope), expressed stably in RBL cells (enzyme, UniProt P23188 108-793, looked up)
chain: DVYQEPTDPKFPQQWYLSGVTQRDLNVKEAWAQGFTGHGIVVSILDDGIEKNHPDLAGNYDPGASFDVNDQDPDPQPRYTQMNDNRHGTRCAGEVAAVANNGVCGVGVAYNARIGGVRMLDGEVTDAVEARSLGLNPNHIHIYSASWGPEDDGKTVDGPARLAEEAFFRGVSQGRGGLGSIFVWASGNGGREHDSCNCDGYTNSIYTLSISSATQFGNVPWYSEACSSTLATTYSSGNQNEKQIVTTDLRQKCTESHTGTSASAPLAAGIIALTLEANKNLTWRDMQHLVVQTSKPAHLNADDWATNGVGRKVSHSYGYGLLDAGAMVALAQNWTTVAPQRKCIVEILVEPKDIGKRLEVRKAVTACLGEPNHITRLEHVQARLTLSYNRRGDLAIHLISPMGTRSTLLAARPHDYSADGFNDWAFMTTHSWDEDPAGEWVLEIENTSEANNYGTLTKFTLVLYGTAPEGLSTPPESSGCKTLTSSQACVVCEEGYSLHQKSCVQHCPPGFIPQVLDTHYSTENDVEIIRASVCTPCHASCATCQGPAPTDCLSCPSHASLDPVEQTCSRQSQSSRESRPQQQPPALRPEVEMEPRLQAGLASHLPEVLAGLSCLIIVLIFGIVFLFLHRCSGFSFRGVKVYTMDRGLISYKGLPPEAWQEECPSDSEEDEGRGERTAFIKDQSAL
  stoichiometry N: 2

B2: furin-FLAG (mouse furin tagged with the FLAG epitope), expressed stably in RBL cells (enzyme)
chain: DVYQEPTDPKFPQQWYLSGVTQRDLNVKEAWAQGFTGHGIVVSILDDGIEKNHPDLAGNYDPGASFDVNDQDPDPQPRYTQMNDNRHGTRCAGEVAAVANNGVCGVGVAYNARIGGVRMLDGEVTDAVEARSLGLNPNHIHIYSASWGPEDDGKTVDGPARLAEEAFFRGVSQGRGGLGSIFVWASGNGGREHDSCNCDGYTNSIYTLSISSATQFGNVPWYSEACSSTLATTYSSGNQNEKQIVTTDLRQKCTESHTGTSASAPLAAGIIALTLEANKNLTWRDMQHLVVQTSKPAHLNADDWATNGVGRKVSHSYGYGLLDAGAMVALAQNWTTVAPQRKCIVEILVEPKDIGKRLEVRKAVTACLGEPNHITRLEHVQARLTLSYNRRGDLAIHLISPMGTRSTLLAARPHDYSADGFNDWAFMTTHSWDEDPAGEWVLEIENTSEANNYGTLTKFTLVLYGTAPEGLSTPPESSGCKTLTSSQACVVCEEGYSLHQKSCVQHCPPGFIPQVLDTHYSTENDVEIIRASVCTPCHASCATCQGPAPTDCLSCPSHASLDPVEQTCSRQSQSSRESRPQQQPPALRPEVEMEPRLQAGLASHLPEVLAGLSCLIIVLIFGIVFLFLHRCSGFSFRGVKVYTMDRGLISYKGLPPEAWQEECPSDSEEDEGRGERTAFIKDQSAL
  stoichiometry N: 2
